From patent US20250147035A1, “METHODS FOR DETECTION OF POST-TRANSLATIONAL MODIFICATIONS” (Quantum-Si Incorporated, priority 2023, published 2025)
Primed or numbered codes have the meaning given here. Where no end group is shown, it is not given here. [ ]: non-standard residue; d: D form. pS = N[C@@H](COP(=O)(O)O)C(=O)O; Biotin′ = not defined here

Columns and labels:
[1] = system: pT-ENR and pT-TDY peptides; experiment: Two-stage chip run, phospho-threonine peptides spiked in the CDNF libraries; assay type: binding
Experimental: (§1) Using the two-stage recognition run format described above, PTM recognition of phospho-threonine in various peptide motifs was evaluated. Phospho-threonine detection by the PTM-specific affinity reagent in different peptide motifs was evaluated with unphosphorylated threonine ([…], […], […], […], and […]) and compared to their phosphorylated threonine counterparts (QRF-pT-LAYPDDD, RFL-pT-LAYPDDD, FLA-pT-LAYPDDD, LAQ-PT-LAYPDDD, and AQR-pT-LAYPDDD). […] The PTM-specific affinity reagent was also evaluated for its ability to detect phospho-threonine residues at different positions in peptides. […] Similar results were obtained by performing the same two-stage chip run on phospho-threonine peptides spiked in the CDNF libraries (FIGS. 19A-19H).

[2] = system: unphosphorylated threonine peptides; experiment: Two-stage on-chip recognition run, unphosphorylated threonine peptides; assay type: binding
Experimental: (§2) The phospho-threonine-specific affinity reagent, PM12, was evaluated for its ability to bind phospho-threonine residues residing in a range of motifs and at different positions in peptides (FIG. 15). To evaluate the PTM-specific affinity reagent, two-stage on-chip recognition runs were performed as described in Example 3. […] Peptide sequencing following PTM detection was not affected for either peptide (FIGS. 16A-16C).
(§3) This was followed by a second stage in which reagents for peptide sequencing (amino acid recognition molecules, cleaving reagents) were added to the chip to determine sequence information for the single peptide molecules. The plots shown at the top of FIGS. 16B and 16C are stacked plots showing the number of apertures (y-axis) with recognition taking place on the chip over the course of two-stage recognition runs (x-axis) performed in parallel with peptides having unphosphorylated threonine (FIG. 16B) or phosphorylated threonine (FIG. 16C). Each plot shown at the bottom of FIGS. 16B and 16C is an example binding trace from a single aperture on the chip.
as §1

[3] = system: SAKLDEESILKQ-Biotin; experiment: Octet binding assay of PTM-specific affinity reagent candidates, SA control peptide; conditions: SA = […]-Biotin (control); fixed concentration of reagent
Description: (§4) This Example characterizes an exemplary phosphorylated threonine recognizer for use in methods of the disclosure.

[4] = system: EFLN-pT-RFYK; experiment: Octet binding platform, peptide-coated sensors dipped in PM12; conditions: phospho-threonine in the middle of the peptide
Description: (§5) Next, control peptides ([…] and […]) were compared to model peptides (EFLN-pT-RFYK and p[…]) to evaluate phospho-threonine detection in different peptide motifs using a post-translational modification-specific (PTM-specific) affinity reagent that binds to phospho-threonine (PM12). Using the Octet binding platform, Octet sensors were coated with the peptide of interest and dipped in buffer containing the PTM-specific affinity reagent. […] In contrast, no shift was detected with the corresponding control peptides having unphosphorylated threonine (FIGS. 14A-14B).

[5] = system: pT-[…]; experiment: as above; conditions: phospho-threonine at the N-terminus
Description: as §5

[6] = system: phospho-tyrosine (p[…]); experiment: Polarization binding assays of PM12; conditions: FITC-labeled peptide, PM12 2 μM
Experimental: (§6) FIGS. 21A-21E provide data from polarization binding assays using a fixed concentration of PM12 with 2 μM and FITC-labeled peptides (p[…], p[…], p[…], QRFp[…], p[…]).
(§7) This Example characterizes an exemplary phosphorylated threonine recognizer for use in methods of the disclosure. Octet binding assays at a fixed concentration of PTM-specific affinity reagent candidates were evaluated for binding with phospho-threonine, phospho-serine containing peptides (p[…]-Biotin; p[…]-Biotin; p[…]-Biotin), and control peptides without modifications ([…]-Biotin; […]-Biotin).

[7] = system: p[…]-Biotin; experiment: Octet binding assay of PTM-specific affinity reagent candidates, pTA peptide; conditions: fixed concentration of reagent
Description: as §4

[8] = molecular target: T1, pSAKLDEESILKQ-Biotin; experiment: Octet (BLI), fixed reagent concentration;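 also: octet binding of candidate PTM-specific affinity reagents, each at one fixed concentration, to biotinylated phospho-Thr or phospho-Ser peptides, with unmodified biotinylated peptides serving as controls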
T1 peptide: [pS]AKLDEESILKQ-{Biotin′}
Experimental: Octet binding assays at a fixed concentration of PTM-specific affinity reagent candidates were evaluated for binding with phospho-threonine, phospho-serine containing peptides (p[sequence]-Biotin; p[sequence]-Biotin; p[sequence]-Biotin), and control peptides without modifications ([sequence]-Biotin; [sequence]-Biotin).

[9] = system: phospho-threonine peptides; experiment: Two-stage on-chip recognition run, phospho-threonine peptides; assay type: binding
Experimental: as §2, §3, §1

[10] = system: […]; experiment: Octet binding platform, peptide-coated sensors dipped in PM12, control peptide; conditions: unphosphorylated threonine
Description: as §5

[11] = system: EFLNTRFY; experiment: as above; conditions: unphosphorylated threonine
Description: as §5

[12] = molecular target: T2, …-Biotin; experiment: Octet (BLI), fixed reagent concentration
T2 sequence (peptide, C-terminal Biotin): TAKLDEESILKQ

[13] = molecular target: T3, p…-Biotin; experiment: Octet (BLI), fixed reagent concentration
T3 sequence (peptide, phosphothreonine at 1; C-terminal Biotin): TAKLDEESILKQ

[14] = system: phospho-serine (p[…], p[…]); experiment: Polarization and Octet binding assays of PM12; conditions: PM12 fixed concentration
Experimental: as §6, §7

[15] = system: phospho-threonine peptides (p[…], QRFpTLAYPDDD, p[…]); assay type: binding
[16] = system: […]-Biotin; experiment: Octet binding assay of PTM-specific affinity reagent candidates, TA control peptide; conditions: fixed concentration of reagent
Description: as §4

[17] = system: p[…]-Biotin; experiment: Octet binding assay of PTM-specific affinity reagent candidates, pTQR peptide; conditions: fixed concentration of reagent
Experimental: as §7

B1: PM12 (Mycobacterium tuberculosis/FhaA) (other)
chain: MGSAGTSVTLQLDDGSGRTYQLREGSNIIGRGQDAQFRLPDTGVSRRHLEIRWDGQVALLADLNSTNGTTVNNAPVQEWQLADGDVIRLGHSEIIVRMH
For B1, the “discrimination of phosphorylated and unphosphorylated CDNF peptides” value ([1]; in the same run) was “able to discriminate between phosphorylated and unphosphorylated CDNF peptides”, the “binding to phospho-threonine CDNF peptides” value ([1]; peptide traces) was “binding to pT-ENR and pT-TDY peptides” and the “signal for unphosphorylated threonine residues at corresponding positions” value ([2]; N-terminus, C-terminus, middle) was “no signal was observed”. For the same molecule, the “signal with unphosphorylated peptide motifs” value ([2]; QRFT-, RFLT-, FLAT-, LAQT-, AQRT-LAYPDDD) was “no signal was detected”, the “pulsing in the first 30 minutes” value ([2]; control peptide […]) was “no pulsing” and the “Octet binding assay response, SA” value [3] was 0.6. For the same molecule, the Octet shift [4] was 6.8, the Octet shift [5] was 4.4 and the binding for phospho-tyrosine [6] was “low binding”. The “Octet binding assay response, pTA” value [7] was 6.9, the “Octet binding assay response” value [8] was 0.7 and the “phospho-threonine detection in different peptide motifs” value ([9]; QRF-pT-, RFL-pT-, FLA-pT-, LAQ-pT-, AQR-pT-LAYPDDD, first 30 minutes) was “able to detect phospho-threonine in all five peptide motifs tested”. The “pulsing in the first 30 minutes” value ([9]; model peptide RFL-pT-LAYPDDD) was “fast pulsing”, the “recognition of phospho-threonine at different positions in peptides” value ([9]; pulsing in the first 30 minutes) was “recognized phospho-threonine residues at the N-terminus, the C-terminus, and in the middle of peptides” and the Octet shift [10] was “no shift”. For the same molecule, the Octet shift [11] was “no shift”, the Octet binding assay response [12] was 0.6 and the Octet binding assay response [13] was 6.9. For the same molecule, the binding for phospho-serine [14] was “low binding”, the specificity for phospho-threonine ([15]; FITC-labeled peptides, PM12 2 μM) was “high specificity for phospho-threonine” and the “preference for phospho-threonine location in the peptide” value ([15]; internal vs N-terminal phospho-threonines, […]) was “slight preference for internal phospho-threonines”. The “Octet binding assay response, TA” value [16] was 0.6 and the “Octet binding assay response, pTQR” value [17] was 7.1.
